Data published in paper PMC9330637.
Where two headings read alike, the source gives them in different places.

Assays:
FUS wild-type [1] = biological target: T1, FUS wild-type (UniProt P35637 1-526); assay: fluorescence anisotropy
FUS wild-type [2] = biological target: T1, FUS wild-type; assay: single-molecule fluorescence
FUS wild-type [3] = biological target: T1, FUS wild-type; assay: single-molecule fluorescence; remark: listed apart in the source
FUS Y>S = FUS Y>S (UniProt P35637 1-526, Y6S;Y14S;Y17S;Y25S;Y33S;Y38S;Y41S;Y50S;Y55S;Y58S;Y66S;Y75S;Y81S;Y91S;Y97S;Y100S; …); assay: single-molecule fluorescence

UUUUUUUUUUUUUUUUUUUUUUUUUUUUUUUUUUUUUUUU (ssRNA) [U40 RNA]
Kd (FUS wild-type [1]): ~5 nM

B1: pdU50 RNA (mixed)
RNA 1: UUUUUUUUUUUUUUUUUUUUUUUUUUUUUUUUUUUUUUUUUUUUUUUUUUGCCUCGCUGCCGUCGCCA
RNA 2: UGGCGACGGCAGCGAGGC
binding result (FUS wild-type [2]): binds

B2: pdPAR9 (mixed)
DNA 1: TGGCGACGGCAGCGAGGC
DNA 2: GCCTCGCTGCCGTCGCCA
modifications: PAR 9-mer joined to DNA strand 1 by alkyne-azide click; PAR not part of printed strand
binding result (FUS wild-type [3]): binds

B3: pdPAR22 (mixed)
DNA 1: TGGCGACGGCAGCGAGGC
DNA 2: GCCTCGCTGCCGTCGCCA
modifications: PAR 22-mer joined to DNA strand 1 by alkyne-azide click; PAR not part of printed strand
binding result (FUS wild-type [3]): binds
binding result (FUS Y>S): binds
